The values that follow are results of earlier work, collected in PMC11811815.

This data set concerns the target Usp18 (Mus musculus) (UniProt Q9WTV6).
Chain of UniProt Q9WTV6 (Q9WTV6 whole entry): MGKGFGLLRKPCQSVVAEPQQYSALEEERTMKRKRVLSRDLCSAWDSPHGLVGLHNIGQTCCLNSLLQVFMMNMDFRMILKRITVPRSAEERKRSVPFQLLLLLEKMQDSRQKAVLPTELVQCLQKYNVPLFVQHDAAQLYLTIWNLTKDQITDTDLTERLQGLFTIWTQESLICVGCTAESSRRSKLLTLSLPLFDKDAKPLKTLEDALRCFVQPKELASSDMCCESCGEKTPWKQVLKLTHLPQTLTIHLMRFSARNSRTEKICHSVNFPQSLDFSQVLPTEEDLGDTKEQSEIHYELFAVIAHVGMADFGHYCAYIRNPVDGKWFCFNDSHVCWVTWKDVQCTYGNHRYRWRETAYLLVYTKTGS

One may read the Kd as the equilibrium constant for the complex coming apart. Isg15 (from UniProt Q64339): the dissociation constant (Kd) was 1300 nM.
